Experimental data published in article PMC6290791, “microRNA-29b mediates fibrotic induction of human xylosyltransferase-I in human dermal fibroblasts via the Sp1 pathway”.

Target: Sp3 (UniProt Q02447 1-781)
Assay: EMSA; 5 mM MgCl2; 10 mM Tris pH 7.5, 50 mM KCl, 1 mM DTT, 75 ng/ul poly(dI-dC), 0.25 mg/ml BSA, 40 fmol probe, 1 ug protein, 20 min room temperature; Sp3 buffer plus 5% glycerol, 5 mM MgCl2, 0.025% NP-40; 6% PAGE in 0.5x TBE
Conditions: protein: commercial; label: 5'-biotin on both strands; blunt

Sp3, sequence (Q02447 whole entry): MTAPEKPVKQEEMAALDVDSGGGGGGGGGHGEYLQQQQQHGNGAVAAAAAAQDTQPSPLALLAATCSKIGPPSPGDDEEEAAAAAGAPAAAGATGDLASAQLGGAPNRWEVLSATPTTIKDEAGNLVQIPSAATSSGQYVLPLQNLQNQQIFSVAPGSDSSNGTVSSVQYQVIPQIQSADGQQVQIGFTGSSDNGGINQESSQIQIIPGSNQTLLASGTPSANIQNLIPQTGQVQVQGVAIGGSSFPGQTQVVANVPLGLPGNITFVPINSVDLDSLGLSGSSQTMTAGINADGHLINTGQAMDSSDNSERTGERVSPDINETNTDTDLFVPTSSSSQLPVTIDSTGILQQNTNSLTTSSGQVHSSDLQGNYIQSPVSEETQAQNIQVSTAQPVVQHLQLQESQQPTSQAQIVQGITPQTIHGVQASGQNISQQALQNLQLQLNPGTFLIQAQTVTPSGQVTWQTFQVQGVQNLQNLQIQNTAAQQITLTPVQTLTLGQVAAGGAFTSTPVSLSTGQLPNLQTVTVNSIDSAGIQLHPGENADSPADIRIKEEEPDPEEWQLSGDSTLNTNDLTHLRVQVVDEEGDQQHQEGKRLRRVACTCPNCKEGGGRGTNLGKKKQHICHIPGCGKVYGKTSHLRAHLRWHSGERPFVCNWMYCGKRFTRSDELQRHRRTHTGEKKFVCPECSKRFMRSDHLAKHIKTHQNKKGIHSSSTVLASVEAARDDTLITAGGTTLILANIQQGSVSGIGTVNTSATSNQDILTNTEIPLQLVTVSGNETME

B1: SP1.3 (dsDNA)
DNA 1: TCCTCCCTCGGCTCCTCCCCCAGGC
DNA 2: GCCTGGGGGAGGAGCCGAGGGAGGA
- binding signal: 100 % of strongest band

B2: SP1.4 (dsDNA)
DNA 1: CCCAGGCCCCGCCCTCTCCGCCTCG
DNA 2: CGAGGCGGAGAGGGCGGGGCCTGGG
- binding signal: 83.4 % of strongest band

B3: SP1.2 (dsDNA)
DNA 1: CTGATCGCCCCCACCCCCTTCCTTT
DNA 2: AAAGGAAGGGGGTGGGGGCGATCAG
- binding signal: 99.3 % of strongest band
